One block for each binder: values may come before it.
B3: N-terminal domain mutant protein of KaiC, residues 1 to 268 (KaiCN) (domain or fragment, UniProt Q79V60 1-268, looked up)
chain: MTNLPEHQSSPTEQSSAEVKKIPTMIEGFDDISHGGLPQGRTTLVSGTSGTGKTLFAVQFLYNGITIFNEPGIFVTFEESPQDIIKNALSFGWNLQSLIDQGKLFILDASPDPDGQEVAGDFDLSALIERIQYAIRKYKATRVSIDSVTAVFQQYDAASVVRREIFRLAFRLKQLGVTTIMTTERVDEYGPVARFGVEEFVSDNVVILRNVLEGERRRRTVEILKLRGTTHMKGEYPFTINNGINIFPLGAMRLTQRSSNVRVSSGVK
notes: KaiC, Thermosynechococcus elongatus BP-1, N-terminal domain, residues 1-268; Used as monomer (no ATP) and as hexamer (with ATP or Mg-ATP); the assay tells which; also called KaiCN^1mer; KaiCN^6mer
B4: KaiC_(S431D&T432D) (KaiCDD) (natural protein, UniProt Q79V60 1-518, looked up)
chain: MTNLPEHQSSPTEQSSAEVKKIPTMIEGFDDISHGGLPQGRTTLVSGTSGTGKTLFAVQFLYNGITIFNEPGIFVTFEESPQDIIKNALSFGWNLQSLIDQGKLFILDASPDPDGQEVAGDFDLSALIERIQYAIRKYKATRVSIDSVTAVFQQYDAASVVRREIFRLAFRLKQLGVTTIMTTERVDEYGPVARFGVEEFVSDNVVILRNVLEGERRRRTVEILKLRGTTHMKGEYPFTINNGINIFPLGAMRLTQRSSNVRVSSGVKTLDEMCGGGFFKDSIILATGATGTGKTLLVSKFLETGCQQGERALLFAYEESRAQLSRNASSWGIDFEELERRGLLRIICAYPESAGLEDHLQIIKSEIADFKPSRVAIDSLSALARGVSNNAFRQFVIGVTGFAKQEEITGFFTNTTDQFMGSNSITESHIDDITDTILLLQYVEIRGEMSRAINVFKMRGSWHDKGIREYVITEKGAEIRDSFRNFEGIISGTPTRISVDEKTELARIAKGMQDLESE
notes: KaiC, Thermosynechococcus elongatus BP-1, subunit of 518 amino acid residues, aspartate at the two phosphorylation sites; Used as monomer (KaiC^1mer, no ATP) and as hexamer (KaiC^6mer; with Mg-ATP, ATP, Mg-AMPPNP, Mg-ATPγS or Mg-ADP-AlFx); the assay tells which; also called KaiCDD^1mer; KaiCDD^6mer

Experiments:
[1] = molecular target: B4; assay: native gel or EMSA; KaiBWT (1 μM) or KaiB1-94 (2 μM) with 1 μM KaiCDD hexamer in reaction buffer (20 mM HEPES-NaOH pH 7.5, 150 mM NaCl) with Mg-ATP at 40 °C, time course; 10 % native gel, CBB, densitometry; conditions: both partners purified
[2] = molecular target: T1, wild-type KaiC (KaiCWT) (Thermosynechococcus elongatus BP-1 …, UniProt Q79V60 1-518, phosphorylation level of the KaiCWT preparations about 30 % (phosphorylation sites Ser431 and Thr432)); assay: native gel or EMSA; KaiC hexamer (formed with Mg-ATP, 1 μM) with 5 μM KaiB1-94 in the presence of Mg-ATP at 4 °C; native PAGE, complex bands checked by second-dimension SDS-PAGE; conditions: both partners purified
T1 construct: KaiC, Thermosynechococcus elongatus BP-1, wild type, subunit of 518 amino acid residues; Used as hexamer formed with Mg-ATP; also called KaiCWT^6mer
T1 sequence (looked up): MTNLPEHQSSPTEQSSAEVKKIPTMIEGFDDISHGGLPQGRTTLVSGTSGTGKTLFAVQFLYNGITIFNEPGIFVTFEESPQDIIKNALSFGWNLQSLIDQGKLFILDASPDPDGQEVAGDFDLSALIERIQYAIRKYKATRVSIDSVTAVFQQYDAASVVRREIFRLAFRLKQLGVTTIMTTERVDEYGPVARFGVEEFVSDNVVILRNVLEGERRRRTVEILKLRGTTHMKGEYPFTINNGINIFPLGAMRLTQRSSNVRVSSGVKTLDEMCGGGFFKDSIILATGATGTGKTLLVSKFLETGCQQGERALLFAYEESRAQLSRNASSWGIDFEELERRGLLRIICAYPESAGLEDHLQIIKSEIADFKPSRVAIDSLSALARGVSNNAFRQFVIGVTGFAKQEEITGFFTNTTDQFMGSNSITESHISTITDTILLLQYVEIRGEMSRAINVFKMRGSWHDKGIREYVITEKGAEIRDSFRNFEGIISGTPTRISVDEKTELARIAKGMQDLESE

[3] = molecular target: T2, KaiC_(K294H) (Thermosynechococcus elongatus BP-1 …, UniProt Q79V60 1-518, K294H); assay: as above; conditions: both partners purified
T2 construct: KaiC, Thermosynechococcus elongatus BP-1, 518 residues, K294H in Walker's motif A of the C-terminal domain; Used as hexamer formed with Mg-ATP; also called KaiC_(K294H)^6mer
T2 sequence (looked up): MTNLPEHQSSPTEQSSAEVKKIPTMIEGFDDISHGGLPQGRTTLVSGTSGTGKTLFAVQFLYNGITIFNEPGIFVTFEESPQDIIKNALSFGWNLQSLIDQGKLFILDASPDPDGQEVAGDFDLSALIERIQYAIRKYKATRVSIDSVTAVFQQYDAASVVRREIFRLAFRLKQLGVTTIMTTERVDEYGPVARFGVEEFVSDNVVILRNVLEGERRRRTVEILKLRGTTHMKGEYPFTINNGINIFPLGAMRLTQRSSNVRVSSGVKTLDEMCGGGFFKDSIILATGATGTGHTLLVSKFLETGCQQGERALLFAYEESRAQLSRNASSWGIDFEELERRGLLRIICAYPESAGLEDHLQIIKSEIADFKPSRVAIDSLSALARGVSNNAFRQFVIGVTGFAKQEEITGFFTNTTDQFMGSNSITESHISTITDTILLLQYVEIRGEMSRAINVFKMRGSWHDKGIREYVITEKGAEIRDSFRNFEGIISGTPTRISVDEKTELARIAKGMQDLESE

[4] = molecular target: T3, KaiC_(K294H/DD) (Thermosynechococcus elongatus BP-1 …, UniProt Q79V60 1-518, K294H | S431D | T432D); assay: native gel or EMSA; monomeric KaiC (5 μM; 1 μM for the concentration series) with KaiB1-94 or 7.5 μM KaiBWT in reaction buffer without ATP, 4 °C, 6 h (KaiC_(C/DD) also at 25 °C); 10 % native gel, CBB, densitometry; conditions: both partners purified
T3 construct: KaiC, Thermosynechococcus elongatus BP-1, 518 residues, K294H in Walker's motif A (C-terminal ATPase motif mutation by the results) plus the DD mutation; Used as monomer (no ATP) and as hexamer (with Mg-ATP); the assay tells which; also called KaiC_(K294H/DD)^1mer; KaiC_(K294H/DD)^6mer
T3 sequence (looked up): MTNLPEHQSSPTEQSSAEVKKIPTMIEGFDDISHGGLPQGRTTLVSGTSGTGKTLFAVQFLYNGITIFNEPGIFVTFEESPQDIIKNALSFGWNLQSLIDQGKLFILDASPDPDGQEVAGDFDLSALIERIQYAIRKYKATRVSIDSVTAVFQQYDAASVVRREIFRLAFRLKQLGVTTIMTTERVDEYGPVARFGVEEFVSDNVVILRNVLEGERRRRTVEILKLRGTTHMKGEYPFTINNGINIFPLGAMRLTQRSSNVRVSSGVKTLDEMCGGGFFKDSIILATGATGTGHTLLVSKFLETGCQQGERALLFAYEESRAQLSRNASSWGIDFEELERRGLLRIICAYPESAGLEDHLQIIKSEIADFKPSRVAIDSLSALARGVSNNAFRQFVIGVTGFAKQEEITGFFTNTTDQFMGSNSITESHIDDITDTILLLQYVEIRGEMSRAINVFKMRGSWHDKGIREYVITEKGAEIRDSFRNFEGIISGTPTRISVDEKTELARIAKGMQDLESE

[5] = molecular target: B3; assay: as above; conditions: both partners purified
[6] = molecular target: B4; assay: as above; conditions: both partners purified
[7] = molecular target: T4, KaiC_(K53H/DD) (Thermosynechococcus elongatus BP-1 …, UniProt Q79V60 1-518, K53H | S431D | T432D); assay: as above; conditions: both partners purified
T4 construct: KaiC, Thermosynechococcus elongatus BP-1, 518 residues, K53H in the N-terminal Walker's motif A plus the DD mutation; Used as monomer (no ATP) and as hexamer (with Mg-ATP); the assay tells which; also called KaiC_(K53H/DD)^1mer; KaiC_(K53H/DD)^6mer
T4 sequence (looked up): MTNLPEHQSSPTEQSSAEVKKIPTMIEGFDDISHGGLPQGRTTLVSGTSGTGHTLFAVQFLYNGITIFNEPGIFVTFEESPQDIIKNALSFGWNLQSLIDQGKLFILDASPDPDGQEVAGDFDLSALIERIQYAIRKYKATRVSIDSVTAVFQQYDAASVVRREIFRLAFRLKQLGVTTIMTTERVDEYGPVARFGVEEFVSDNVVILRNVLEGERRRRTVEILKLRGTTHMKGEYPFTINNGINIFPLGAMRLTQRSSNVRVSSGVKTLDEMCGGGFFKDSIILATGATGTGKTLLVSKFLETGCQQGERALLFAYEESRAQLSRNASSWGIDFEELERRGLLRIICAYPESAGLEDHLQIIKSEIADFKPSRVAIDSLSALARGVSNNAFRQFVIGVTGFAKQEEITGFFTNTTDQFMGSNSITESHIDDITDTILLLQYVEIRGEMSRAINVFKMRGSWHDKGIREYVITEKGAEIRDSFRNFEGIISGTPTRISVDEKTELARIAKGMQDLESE

[8] = molecular target: the molecule itself; assay: native gel or EMSA; 5 μM monomeric KaiC incubated with 1 mM ATP with or without 5 mM MgCl2 at 4 °C; monomer to hexamer

Binder: B3
- stoichiometry N [8]: 6

Binder: B4
- stoichiometry N [8]: 6

Continued, values first:

- t1/2 of complex formation [1]: 1.2 h
- binding result [2]: binds
- binding result [3]: binds
- binding result [4]: binds
- binding result [5]: binds
- EC50 [6]: ~700 nM
- t1/2 of complex formation [6]: ~2.5 h
- binding result [7]: binds
B1: mutant KaiB with a C-terminal deletion of residues 95 to 108 (KaiB1-94) (domain or fragment, UniProt Q79V61 1-94, looked up)
chain: MAPLRKTYVLKLYVAGNTPNSVRALKTLNNILEKEFKGVYALKVIDVLKNPQLAEEDKILATPTLAKVLPPPVRRIIGDLSNREKVLIGLDLLY
notes: KaiB, Thermosynechococcus elongatus BP-1, residues 1-94 (C-terminal residues 95-108 deleted)

- binding result [1]: binds
B2: wild-type KaiB (KaiBWT) (natural protein, UniProt Q79V61 1-108, looked up)
chain: MAPLRKTYVLKLYVAGNTPNSVRALKTLNNILEKEFKGVYALKVIDVLKNPQLAEEDKILATPTLAKVLPPPVRRIIGDLSNREKVLIGLDLLYEEIGDQAEDDLGLE
notes: KaiB, Thermosynechococcus elongatus BP-1, wild type, subunit of 108 amino acid residues; also called KaiBWT^4mer; KaiB^4mer

Reference: paper PMC3823767, “The ATP-Mediated Regulation of KaiB-KaiC Interaction in the Cyanobacterial Circadian Clock” (PLoS ONE, 2013)
